Test results from patent US20240141060A1 (Novartis, published 2024).
Where a chain is given by its changes, count along the chain named. In names and notes the source's numbering stands.

Tests used:
[1] = target: T1, Recombinant Mouse 5′-Nucleotidase/CD73 Protein, CF (R&D Systems Cat: 4488-EN) (mouse, UniProt Q61503 29-549, limits assumed); test: Biacore SPR, Fab captured by anti-human Fab on CM5 chip, CD73 as analyte
T1 construct: Bought protein; also called Mouse CD73-His; recombinant mouse CD73; not shown: His tag
T1 sequence (looked up): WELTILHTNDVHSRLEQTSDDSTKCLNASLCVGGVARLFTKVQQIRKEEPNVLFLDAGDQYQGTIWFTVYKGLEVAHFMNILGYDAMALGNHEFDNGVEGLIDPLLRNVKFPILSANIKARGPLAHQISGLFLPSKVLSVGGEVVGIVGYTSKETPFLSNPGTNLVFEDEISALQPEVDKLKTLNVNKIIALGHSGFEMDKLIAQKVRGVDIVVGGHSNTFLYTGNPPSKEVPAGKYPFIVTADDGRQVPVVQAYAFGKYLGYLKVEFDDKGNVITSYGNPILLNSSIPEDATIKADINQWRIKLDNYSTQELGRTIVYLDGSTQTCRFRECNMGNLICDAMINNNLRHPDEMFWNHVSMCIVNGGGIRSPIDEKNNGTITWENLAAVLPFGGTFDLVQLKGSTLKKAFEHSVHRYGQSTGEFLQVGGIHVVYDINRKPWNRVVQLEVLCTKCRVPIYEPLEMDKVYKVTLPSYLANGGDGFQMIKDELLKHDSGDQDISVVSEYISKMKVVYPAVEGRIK
Protocol: (§1) Proteins used were as follows: recombinant human CD73 (R&D Systems 5795-EN); recombinant cynomolgus monkey CD73 (Sino Biological 90912-C08H); recombinant mouse CD73 (R&D Systems 4488-EN); and recombinant rat CD73 (Sino Biological 80375-R08H). Anti-human Fab (GE Healthcare Life Sciences) was immobilized on all 4 flow cells (Fc) on a CM5 chip (GE). […] 0.01 nM to 90 nM CD73 (3-fold dilution series) was flown over all 4 Fcs. All samples were diluted in running buffer HBS-EP+(pH 7.4, 0.01 M HEPES, 150 mM NaCl, 3 mM EDTA and 0.05% (v/v) P20).

[2] = target: T2, recombinant rat CD73 (Sino Biological 80375-R08H) (rat, UniProt P21588 29-551); test: as above
T2 construct: Bought protein; also called rCD73; rat CD73/His
T2 sequence (looked up): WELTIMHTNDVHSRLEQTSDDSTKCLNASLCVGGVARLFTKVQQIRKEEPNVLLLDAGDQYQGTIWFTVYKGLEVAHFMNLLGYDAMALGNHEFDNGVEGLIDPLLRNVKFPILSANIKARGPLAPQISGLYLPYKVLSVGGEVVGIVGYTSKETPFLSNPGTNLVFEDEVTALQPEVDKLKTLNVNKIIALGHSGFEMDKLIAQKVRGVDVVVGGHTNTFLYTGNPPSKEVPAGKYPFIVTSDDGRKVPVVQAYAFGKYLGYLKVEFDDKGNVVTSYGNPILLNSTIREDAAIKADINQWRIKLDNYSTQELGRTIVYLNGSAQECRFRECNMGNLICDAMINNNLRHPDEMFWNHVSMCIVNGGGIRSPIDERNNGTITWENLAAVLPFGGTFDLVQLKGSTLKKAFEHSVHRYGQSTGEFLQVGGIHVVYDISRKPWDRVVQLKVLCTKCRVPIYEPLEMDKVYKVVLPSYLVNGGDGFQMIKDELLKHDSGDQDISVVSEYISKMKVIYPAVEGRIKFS
Protocol: as §1

[3] = target: T3, Cynomolgus CD73/NT5E Protein (His Tag) (Sino Biological Cat: 90192-C08H-50) (cynomolgus monkey, UniProt A0A2K5V5U7 27-547); test: Biacore SPR, Fab captured by anti-human Fab on CM5 chip, CD73 0.01-90 nM as analyte
T3 construct: treated as one protein; also called Cynomolgus CD73-His; recombinant cynomolgus monkey CD73; not shown: His tag
T3 sequence: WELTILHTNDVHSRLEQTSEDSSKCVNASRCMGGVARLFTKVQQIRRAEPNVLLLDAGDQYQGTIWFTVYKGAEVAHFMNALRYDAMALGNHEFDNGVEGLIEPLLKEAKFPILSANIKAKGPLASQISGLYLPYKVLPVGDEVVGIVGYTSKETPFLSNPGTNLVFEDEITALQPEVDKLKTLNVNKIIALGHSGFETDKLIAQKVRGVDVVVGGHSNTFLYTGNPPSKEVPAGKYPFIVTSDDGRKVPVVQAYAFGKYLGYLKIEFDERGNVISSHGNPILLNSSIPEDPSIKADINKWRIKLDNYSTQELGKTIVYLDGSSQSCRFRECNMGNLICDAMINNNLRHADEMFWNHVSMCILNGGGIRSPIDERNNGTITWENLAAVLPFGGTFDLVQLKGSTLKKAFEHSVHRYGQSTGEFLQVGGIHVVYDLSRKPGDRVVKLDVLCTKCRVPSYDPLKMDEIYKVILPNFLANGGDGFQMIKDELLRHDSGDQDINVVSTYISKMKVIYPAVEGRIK
Protocol: as §1

[4] = target: T4, Recombinant Human 5′-Nucleotidase/CD73 Protein, CF (R&D Systems Cat: 5795-EN) (human, UniProt P21589 27-547); test: as above
T4 construct: Bought protein; also called Human CD73-His; recombinant human CD73; not shown: His tag
T4 sequence (looked up): T3 sequence with T199M, A350T, I466V
Protocol: as §1

[5] = target: T1, Recombinant Mouse 5′-Nucleotidase/CD73 …; test: Biacore SPR, His-tagged CD73 captured by anti-His antibody on CM5 chip, Fab as analyte
Protocol: (§2) The anti-His Ab was directly immobilized onto a CM5 chip surface by amine coupling. The His-tagged human CD73/His, cynomolgus monkey CD73/His, mouse CD73/His or rat CD73/His was flowed over and captured at a desired resonance unit (RU) for an Rmax of 20. Antibody analyte concentrations in serial dilutions of IgG or Fab were flowed over at 60 μL/min. The sensorgrams were analyzed using the manufacturer's software for a 1:1 binding model.

[6] = target: T2, recombinant rat CD73 (Sino Biological …); test: as above
Protocol: as §2

[7] = target: T1, Recombinant Mouse 5′-Nucleotidase/CD73 …; test: Biacore SPR, His-tagged CD73 captured by anti-His antibody on CM5 chip, antibody as analyte
Protocol: as §2

[8] = target: T2, recombinant rat CD73 (Sino Biological …); test: as above
Protocol: as §2

[9] = target: T3, Cynomolgus CD73/NT5E Protein (His Tag) …; test: Biacore SPR, His-tagged CD73 captured by anti-His antibody on CM5 chip, IgG as analyte, 1:1 model
Protocol: as §2
(§3) Therefore, given that 1:1 bidentate binding will favor avidity, the whole Ab affinities were used rather than Fab measurements.

[10] = target: T4, Recombinant Human 5′-Nucleotidase/CD73 …; test: as above
Protocol: as §2, §3

[11] = target: T4, Recombinant Human 5′-Nucleotidase/CD73 …; test: ForteBio Octet RED384 (BLI), whole IgG on AHQ sensors, 100 nM antigen, 1:1 model; * value approaching upper limit for Kd measurement
Protocol: (§4) Briefly, ForteBio affinity measurements were performed by loading IgGs on-line onto AHQ sensors. Sensors were equilibrated off-line in assay buffer for 30 min and then monitored on-line for 60 seconds for baseline establishment. Sensors with loaded IgGs were exposed to 100 nM antigen for 3 minutes, and afterwards were transferred to assay buffer for 3 min for off-rate measurement. All kinetics were analyzed using the 1:1 binding model. Antigens used were: [0438] Human CD73-His: Recombinant Human 5′-Nucleotidase/CD73 Protein, CF from R&D Systems Cat: 5795-EN [0439] Mouse CD73-His: Recombinant Mouse 5′-Nucleotidase/CD73 Protein, CF from R&D Systems Cat: 4488-EN [0440] Cynomolgus CD73-His: Cynomolgus CD73/NT5E Protein (His Tag) from Sino Biological Cat: 90192-C08H-50

[12] = target: T1, Recombinant Mouse 5′-Nucleotidase/CD73 …; test: as above
Protocol: as §4

[13] = target: T3, Cynomolgus CD73/NT5E Protein (His Tag) …; test: ForteBio Octet RED384 (BLI), whole IgG on AHQ sensors, 100 nM antigen, 1:1 model
Protocol: as §4

[14] = target: T1, Recombinant Mouse 5′-Nucleotidase/CD73 …; test: Biacore SPR, Fab captured by anti-human Fab on CM5 chip, CD73 0.01-90 nM as analyte
Protocol: as §1

[15] = target: T2, recombinant rat CD73 (Sino Biological …); test: as above
Protocol: as §1

B1: Fab 373 (Fab, V domains shown)
VH: EVQLLESGGGLVQPGGSLRLSCAASGFTFHRYAMSWVRQAPGKGLEWVSAISGSGMNTYYADSVKGRFTISRDNSKNTLYLQMNSLRAEDTAVYYCARGGLYGSGSYLSDFDLWGRGTLVTVSS
VL: EIVLTQSPATLSVSPGERATLSCRASQSVGSNLAWYQQKPGQAPRLLIYGASTRATGIPARFSGSGSGTEFTLTISSLQSEDFAVYYCQQHNAFPYTFGGGTKVEIKR
[1]
  binding result: no binding (tested: 0.01 nM to 90 nM CD73)
[2]
  binding result: no binding (tested: 0.01 nM to 90 nM CD73)
[3]
  Kd: 9460 pM
[4]
  Kd: 13000 pM

B2: 373.A Fab (Fab, V domains shown)
VH: B1 VH
VL: B1 VL
[5]
  binding result: no binding
[6]
  binding result: no binding

B3: anti-CD73 antibody 373.A (antibody, human IgG4 S228P, kappa, V domains shown)
VH: B1 VH
VL: B1 VL
notes: IgG4 S228P format
[7]
  binding result: no binding
[8]
  binding result: no binding
[9]
  Kd: 68 pM
[10]
  Kd: 991 pM

B4: 350.C (antibody, V domains shown)
VH: QVQLQESGPGLVKPSETLSLTCTVSGGSIERYYWSWIRQPPGKGLEWIGYIYGRGSTNYNPSLKSRVTISVDTSKNQFSLKLSSVTAADTAVYYCARESQESPYNNWFDPWGQGTLVTVSS
VL: DIQMTQSPSSVSASVGDRVTITCRASQGISSWLAWYQQKPGKAPKLLIYAASSLQSGVPSRFSGSGSGTDFTLTISSLQPEDFATYYCQQGNSFPRTFGGGTKVEIK
notes: also called 350 IgG1 format
[11]
  Kd: 248 pM
[12]
  Kd: 409 pM
[13]
  Kd: 635 pM

B5: Fab 350 (Fab, V domains shown)
VH: B4 VH
VL: DIQMTQSPSSVSASVGDRVTITCRASQGISSWLAWYQQKPGKAPKLLIYAASSLQSGVPSRFSGSGSGTDFTLTISSLQPEDFATYYCQQGNSFPRTFGGGTKVEIKR
notes: Made by a stop between the two proline residues above the core hinge region of the heavy chain; also called 350 Fab; Fab of mAb 350
[3]
  Kd: ≤ 100 pM
[4]
  Kd: ≤ 100 pM
[14]
  Kd: 17300 pM
[15]
  Kd: 28300 pM
